The text below walks through data of US8067674B2, “Desaturase genes, enzymes encoded thereby, and uses thereof” (Abbott Laboratories, priority 2002, dated 2011).

This data set has as its system fatty acid substrates. Description: Yeast expression of the omega-3 desaturase (SDD17, sdd17 in pYX242) with exogenous fatty acid substrates, FAME/GC analysis. Type of data set: cell-based, Saccharomyces cerevisiae (SC334). To be noted: for % Conversion: 24° C. From the text: To determine the substrate specificity and the class of reaction catalyzed by the SDD17-protein, sdd17 was heterologously expressed in a Saccharomyces cerevisiae (SC334). Because S. cerevisiae cannot synthesize fatty acids beyond OA (18:1n-9), it is an ideal system to use to determine enzyme activity on substrates longer than OA because no background enzyme activity will be detected. Suitable fatty acid substrates can be exogenously supplied to the host which are taken up by the cell and acted on by the expressed protein of the transformed sdd17 gene.
Clone pRSP19, which contained the full-length omega-3 desaturase (sdd17) from S. diclina cloned into pYX242, was transformed into Saccharomyces cerevisiae (SC334) using the “Alkali-Cation Yeast Transformation”-brand kit (BIO 101, Vista, Calif.). Transformants were selected for leucine auxotrophy on media lacking leucine (DOB [-Leu]). To detect the specific desaturase activity of these clones, transformants were grown in the presence of 50 μM of each of LA (18:2n-6), GLA (18:3n-6),
DGLA (20:3n-6), AA (20:4n-6), and adrenic acid (22:4n-6). Conversion of these exogenously supplied fatty acid substrates into a product having one additional unsaturation indicates the presence of a specific desaturase activity that is not found in the wild-type S. cerevisiae:
The negative control strain was S. cerevisiae transformed with the pYX242 vector. The experimental cultures and the control cultures were grown simultaneously and analyzed.
The cultures were vigorously agitated (250 rpm) and grown for 48 hours at 24° C. in the presence of 50 μM (final concentration) of the various substrates (see Table 3). The cells were spun down, washed once in distilled water, and the pellets resuspended in methanol; chloroform was added along with tritridecanoin (as an internal standard). These mixtures were incubated for at least an hour at room temperature, or at 4° C. overnight. The chloroform layer was extracted and filtered through a Whatman filter with 1 gm anhydrous sodium sulfate to remove particulate matter and residual water. The organic solvents were evaporated at 40° C. under a stream of nitrogen. The extracted lipids were then converted to fatty acid methyl esters (FAME) for gas chromatography analysis (GC) by adding 2 ml 0.5 N potassium hydroxide in methanol to a closed tube. The samples were heated to 95° C.-100° C. for 30 minutes and cooled to room temperature. Approximately 2 ml 14% borontrifluoride in methanol was added and the heating repeated. After the extracted lipid mixture cooled, 2 ml of water and 1 ml of hexane were added to extract the FAME for analysis by GC. The percent conversion was calculated using the formula: […]
(i.e. 15° C.). Here, 50 μM of exogenous substrate was added to the transformants and the cultures were grown for 48 hours at 15° C. Fatty acid analysis was carried out as described above. The overall uptake of substrate by S. cerevisiae at 15° C. was lower than that seen at 24° C. (compare Table 3 & Table 4). However the percent conversion of substrate to product by the enzyme increased at 15° C. Since the presence of lower concentration of exogenous fatty acid substrate seemed to improve the activity of the enzyme, it is possible that fatty acid substrates at high concentrations may exert a feed-back inhibition on this enzyme. […]

B1: SDD17: omega-3 desaturase of 358 amino acid residues (SEQ ID NO: 26) encoded by sdd17 from Saprolegnia diclina (ATCC 56851) (protein, listed as Saprolegnia diclina)
chain: MTEDKTKVEFPTLTELKHSIPNACFESNLGLSLYYTARAIFNASASAALLYAARSTPFIADNVLLHALVCATYIYVQGVIFWGFFTVGHDCGHSAFSRYHSVNFIIGCIMHSAILTPFESWRVTHRHHHKNTGNIDKDEIFYPHRSVKDLQDVRQWVYTLGGAWFVYLKVGYAPRTMSHFDPWDPLLLRRASAVIVSLGVWAAFFAAYAYLTYSLGFAVMGLYYYAPLFVFASFLVITTFLHHNDEATPWYGDSEWTYVKGNLSSVDRSYGAFVDNLSHHIGTHQVHHLFPIIPHYKLNEATKHFAAAYPHLVRRNDEPIITAFFKTAHLFVNYGAVPETAQIFTLKESAAAAKAKSD
Turning to B1, under “15° C. vs 24° C., 50 μM substrate, 48 hours”, the “percent conversion of substrate to product at 15° C. compared with 24° C.” value is given as “increased”. The “% Conversion” value runs as follows: (20:3 n-6 (DGLA) to 20:4 n-3 (ETA) (Delta 17), 48 hours, 50 μM substrate) 5%; (20:4 n-6 (AA) to 20:5 n-3 (EPA) (Delta 17), 48 hours, 50 μM substrate) 13.8%; (22:4 n-6 (adrenic acid) to 22:5 n-3 (DPA) (Delta 19), 48 hours, 50 μM substrate) 4%. Besides, the “desaturation of C18 omega-6 fatty acyl substrates to their corresponding omega-3 fatty acids” value (under the conditions tested) is “did not desaturate”.
